Experimental data as given in paper PMC10937199 (ESMO Open, 2024).

Key:
Assay in all cases: Safety
Assay type in all cases: in vivo, human
[1] = system: patients with advanced solid tumors; conditions: Part B
[2] = system: patients with advanced solid tumors; conditions: Part FE
[3] = system: patients with advanced solid tumors; conditions: Part A
[4] = peposertib 100 mg q.d., all grade
[5] = peposertib 100 mg q.d., grade ≥3
[6] = peposertib 150 mg q.d., all grade
[7] = peposertib 150 mg q.d., grade ≥3
[8] = peposertib 200 mg q.d., all grade
[9] = peposertib 200 mg q.d., grade ≥3
[10] = peposertib 250 mg q.d., all grade
[11] = peposertib 250 mg q.d., grade ≥3
[12] = peposertib 100 mg b.i.d., all grade
[13] = peposertib 100 mg b.i.d., grade ≥3
[14] = peposertib 200 mg b.i.d., all grade
[15] = peposertib 200 mg b.i.d., grade ≥3
[16] = peposertib 250 mg b.i.d., all grade
[17] = peposertib 250 mg b.i.d., grade ≥3
[18] = peposertib 300 mg b.i.d., all grade
[19] = peposertib 300 mg b.i.d., grade ≥3
[20] = peposertib 400 mg b.i.d., all grade
[21] = peposertib 400 mg b.i.d., grade ≥3

Avelumab: anti-PD-L1 antibody, immune checkpoint inhibitor, 800 mg Q2W intravenous infusion [reference compound]
Avelumab-related TEAE: IRR ([1]; all dose levels): 8 (42.1%) | Avelumab-related TEAE: fatigue ([1]; all dose levels): 3 (15.8%) | Serious TEAE, avelumab related [1, 4]: 1 (33.3) n (%) | TEAE, avelumab related [1, 4]: 3 (100.0) n (%) | Serious TEAE, avelumab related [1, 5]: 1 (33.3) n (%) | TEAE, avelumab related [1, 5]: 1 (33.3) n (%) | Serious TEAE, avelumab related [1, 6]: 1 (33.3) n (%) | TEAE, avelumab related [1, 6]: 3 (100.0) n (%) | Serious TEAE, avelumab related [1, 7]: 1 (33.3) n (%) | TEAE, avelumab related [1, 7]: 1 (33.3) n (%) | Avelumab-related pneumonitis ([1]; peposertib 200 mg q.d.): 25.0% | Serious TEAE, avelumab related [1, 8]: 0 n (%) | TEAE, avelumab related [1, 8]: 3 (75.0) n (%) | Serious TEAE, avelumab related [1, 9]: 0 n (%) | TEAE, avelumab related [1, 9]: 0 n (%) | Avelumab-related pneumonitis ([1]; peposertib 250 mg q.d.): 11.1% | Serious TEAE, avelumab related [1, 10]: 2 (22.2) n (%) | TEAE, avelumab related [1, 10]: 7 (77.8) n (%) | Serious TEAE, avelumab related [1, 11]: 2 (22.2) n (%) | TEAE, avelumab related [1, 11]: 3 (33.3) n (%) | Avelumab-related TEAE: diarrhea ([2]; all dose levels): 3 (33.3%) | Avelumab-related TEAE: fatigue ([2]; all dose levels): 3 (33.3%) | Serious TEAE, avelumab related [2, 12]: 1 (25.0) n (%) | TEAE, avelumab related [2, 12]: 3 (75.0) n (%) | Serious TEAE, avelumab related [2, 13]: 1 (25.0) n (%) | TEAE, avelumab related [2, 13]: 1 (25.0) n (%) | Serious TEAE, avelumab related [2, 14]: 2 (40.0) n (%) | TEAE, avelumab related [2, 14]: 5 (100.0) n (%) | Serious TEAE, avelumab related [2, 15]: 2 (40.0) n (%) | TEAE, avelumab related [2, 15]: 3 (60.0) n (%) | Avelumab-related TEAE: diarrhea ([3]; all dose levels): 4 (13.8%) | Avelumab-related TEAE: fatigue ([3]; all dose levels): 5 (17.2%) | Avelumab-related TEAE: rash ([3]; all dose levels): 5 (17.2%) | Avelumab-related TEAE: vomiting ([3]; all dose levels): 4 (13.8%) | Serious TEAE, avelumab related [3, 12]: 0 n (%) | TEAE, avelumab related [3, 12]: 2 (50.0) n (%) | Serious TEAE, avelumab related [3, 13]: 0 n (%) | TEAE, avelumab related [3, 13]: 0 n (%) | Avelumab-related pneumonitis ([3]; peposertib 200 mg b.i.d.): 9.1% | Serious TEAE, avelumab related [3, 14]: 3 (27.3) n (%) | TEAE, avelumab related [3, 14]: 8 (72.7) n (%) | Serious TEAE, avelumab related [3, 15]: 3 (27.3) n (%) | TEAE, avelumab related [3, 15]: 3 (27.3) n (%) | Avelumab-related pneumonitis ([3]; peposertib 250 mg b.i.d.): 25.0% | Serious TEAE, avelumab related [3, 16]: 3 (75.0) n (%) | TEAE, avelumab related [3, 16]: 3 (75.0) n (%) | Serious TEAE, avelumab related [3, 17]: 3 (75.0) n (%) | TEAE, avelumab related [3, 17]: 3 (75.0) n (%) | Avelumab-related pneumonitis ([3]; peposertib 300 mg b.i.d.): 16.7% | Serious TEAE, avelumab related [3, 18]: 1 (16.7) n (%) | TEAE, avelumab related [3, 18]: 3 (50.0) n (%) | Serious TEAE, avelumab related [3, 19]: 1 (16.7) n (%) | TEAE, avelumab related [3, 19]: 2 (33.3) n (%) | Serious TEAE, avelumab related [3, 20]: 3 (75.0) n (%) | TEAE, avelumab related [3, 20]: 4 (100.0) n (%) | Serious TEAE, avelumab related [3, 21]: 3 (75.0) n (%) | TEAE, avelumab related [3, 21]: 4 (100.0) n (%)
